Experimental data: patent US20260234255A1 (Genmab, published 2026)

T1: rhesus monkey (Macaca mulatta) CD30 (rhesus monkey, UniProt P28908 19-595 (human entry))
T1 construct: also called mmCD30
T1 chain: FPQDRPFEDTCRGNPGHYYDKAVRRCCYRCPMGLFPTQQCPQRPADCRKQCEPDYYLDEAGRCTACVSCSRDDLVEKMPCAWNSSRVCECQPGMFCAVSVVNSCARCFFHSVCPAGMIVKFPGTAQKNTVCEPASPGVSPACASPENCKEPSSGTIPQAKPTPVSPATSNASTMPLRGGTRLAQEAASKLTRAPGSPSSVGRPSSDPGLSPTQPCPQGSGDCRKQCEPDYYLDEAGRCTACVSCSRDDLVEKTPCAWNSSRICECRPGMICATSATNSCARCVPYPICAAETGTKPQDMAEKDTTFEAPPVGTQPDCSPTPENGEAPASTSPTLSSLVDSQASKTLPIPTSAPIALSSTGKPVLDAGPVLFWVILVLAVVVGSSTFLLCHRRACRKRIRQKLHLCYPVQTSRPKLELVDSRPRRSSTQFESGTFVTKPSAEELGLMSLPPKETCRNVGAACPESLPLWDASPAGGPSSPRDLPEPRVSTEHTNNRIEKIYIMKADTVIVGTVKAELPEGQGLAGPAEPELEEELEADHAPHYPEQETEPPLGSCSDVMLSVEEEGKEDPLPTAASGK

T2: human CD30 (human, UniProt P28908 19-595)
T2 construct: also called huCD30; TNFRSF8
T2 sequence: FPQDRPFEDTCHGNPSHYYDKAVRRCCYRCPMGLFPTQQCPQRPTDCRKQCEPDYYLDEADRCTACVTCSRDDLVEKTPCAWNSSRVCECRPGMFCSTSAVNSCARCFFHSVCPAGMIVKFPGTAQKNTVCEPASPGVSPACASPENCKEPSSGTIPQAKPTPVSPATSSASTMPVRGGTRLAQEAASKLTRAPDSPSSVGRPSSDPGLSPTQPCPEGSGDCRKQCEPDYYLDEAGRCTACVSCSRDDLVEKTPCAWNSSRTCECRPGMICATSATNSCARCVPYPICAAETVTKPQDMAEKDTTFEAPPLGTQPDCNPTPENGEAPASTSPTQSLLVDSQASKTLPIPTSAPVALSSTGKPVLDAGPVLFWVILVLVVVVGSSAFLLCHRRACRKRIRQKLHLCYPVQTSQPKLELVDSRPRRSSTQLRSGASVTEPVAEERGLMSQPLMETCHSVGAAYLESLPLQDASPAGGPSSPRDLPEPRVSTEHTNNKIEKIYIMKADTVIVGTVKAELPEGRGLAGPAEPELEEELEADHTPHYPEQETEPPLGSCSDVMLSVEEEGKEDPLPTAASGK

B1: bsG1-huCD3-FEALxCD30-MDX060-FEAR (bispecific antibody, human IgG1, kappa, lambda)
heavy 1: not shown
light 1: not shown
heavy 2: QVQLQQWGAGLLKPSETLSLTCAVYGGSFSAYYWSWIRQPPGKGLEWIGDINHGGGTNYNPSLKSRVTISVDTSKNQFSLKLNSVTAADTAVYYCASLTAYWGQGSLVTVSSASTKGPSVFPLAPSSKSTSGGTAALGCLVKDYFPEPVTVSWNSGALTSGVHTFPAVLQSSGLYSLSSVVTVPSSSLGTQTYICNVNHKPSNTKVDKRVEPKSCDKTHTCPPCPAPEFEGGPSVFLFPPKPKDTLMISRTPEVTCVVVAVSHEDPEVKFNWYVDGVEVHNAKTKPREEQYNSTYRVVSVLTVLHQDWLNGKEYKCKVSNKALPAPIEKTISKAKGQPREPQVYTLPPSREEMTKNQVSLTCLVKGFYPSDIAVEWESNGQPENNYKTTPPVLDSDGSFFLYSRLTVDKSRWQQGNVFSCSVMHEALHNHYTQKSLSLSPG
light 2: DIQMTQSPTSLSASVGDRVTITCRASQGISSWLTWYQQKPEKAPKSLIYAASSLQSGVPSRFSGSGSGTDFTLTISSLQPEDFATYYCQQYDSYPITFGQGTRLEIKRTVAAPSVFIFPPSDEQLKSGTASVVCLLNNFYPREAKVQWKVDNALQSGNSQESVTEQDSKDSTYSLSSTLTLSKADYEKHKVYACEVTHQGLSSPVTKSFNRGEC
notes: also called bsG1-huCD3xCD30-MDX060
B2: bsG1-huCD3-FEALxCD30-MDX060-FERR (bispecific antibody, human IgG1, kappa, lambda)
heavy 1: not shown
light 1: not shown
heavy 2: QVQLQQWGAGLLKPSETLSLTCAVYGGSFSAYYWSWIRQPPGKGLEWIGDINHGGGTNYNPSLKSRVTISVDTSKNQFSLKLNSVTAADTAVYYCASLTAYWGQGSLVTVSSASTKGPSVFPLAPSSKSTSGGTAALGCLVKDYFPEPVTVSWNSGALTSGVHTFPAVLQSSGLYSLSSVVTVPSSSLGTQTYICNVNHKPSNTKVDKRVEPKSCDKTHTCPPCPAPEFERGPSVFLFPPKPKDTLMISRTPEVTCVVVDVSHEDPEVKFNWYVDGVEVHNAKTKPREEQYNSTYRVVSVLTVLHQDWLNGKEYKCKVSNKALPAPIEKTISKAKGQPREPQVYTLPPSREEMTKNQVSLTCLVKGFYPSDIAVEWESNGQPENNYKTTPPVLDSDGSFFLYSRLTVDKSRWQQGNVFSCSVMHEALHNHYTQKSLSLSPG
light 2: DIQMTQSPTSLSASVGDRVTITCRASQGISSWLTWYQQKPEKAPKSLIYAASSLQSGVPSRFSGSGSGTDFTLTISSLQPEDFATYYCQQYDSYPITFGQGTRLEIKRTVAAPSVFIFPPSDEQLKSGTASVVCLLNNFYPREAKVQWKVDNALQSGNSQESVTEQDSKDSTYSLSSTLTLSKADYEKHKVYACEVTHQGLSSPVTKSFNRGEC
notes: Bispecific IgG1 made by controlled Fab-arm exchange; also called bsIgG1-huCD3-FEALxCD30-MDX060-FERR; bsG1-huCD3×CD30-MDX060

Experiments:
[1] = molecular target: T1, rhesus monkey (Macaca mulatta) CD30; test: flow cytometry, Expi293F cells transfected with rhesus monkey CD30
Description: Cells (3×10⁴ cells/well) were incubated in polystyrene 96-well round-bottom plates (Greiner bio-one, cat. no. 650180) with serial dilutions of antibodies (ranging from 0.005 to 10 μg/mL in 3-fold dilution steps) in 100 μL staining buffer at 4° C. for 30 min. Experiments were performed in technical duplicate. After washing twice in staining buffer, cells were incubated in 50 μL secondary antibody at 4° C. for 30 min. As a secondary antibody, R-PE-conjugated goat-anti-human IgG (Jackson ImmunoResearch, UK; cat. no. 109⁻¹¹⁶-098) diluted 1:400 in staining buffer was used. Cells were washed twice in staining buffer, resuspended in 30 μL staining buffer containing 0.4% EDTA and analyzed on an iQue Screener (Intellicyt Corporation, USA). Binding curves were analyzed using non-linear regression (sigmoidal dose-response with variable slope) using GraphPad Prism V9.0.0 software (GraphPad Software, San Diego, CA, USA).

human CD30 [2] = molecular target: T2, human CD30; test: flow cytometry, SU-DHL-1 cells
In short: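 CD3×CD30 bispecific antibodies, 3-fold serial dilutions from 0.0046 to 10 μg/mL, incubated with 3×10⁴ SU-DHL-1 (ALCL) or HDLM-2 (HL) cells for 30 min at 4 °C, then secondary antibody 30 min at 4 °C. Live cells gated by FSC/SSC and TO-PRO-3 exclusion; binding curves fitted by four-parameter sigmoidal regression.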

human CD30 [3] = molecular target: T2, human CD30; test: flow cytometry, KI-JK cells (ALCL), range of 3 tests
Description: (§1) Cells (3×10⁴ cells/well) were incubated in polystyrene 96-well round-bottom plates (Greiner bio-one, cat. no. 650180) with serial dilutions of antibodies (range 0.0046 to 10 μg/mL in 3-fold dilution steps) in 50 μL staining buffer at 4° C. for 30 min. After washing twice in staining buffer, cells were incubated with 50 μL secondary antibody at 4° C. for 30 min. […] Next, cells were washed twice in staining buffer, resuspended in 100 μL staining buffer supplemented with TO-PRO-3 iodide (Thermo Fisher Scientific; cat. no. T3605; 1:8000 dilution) and analyzed on a FACSCelesta flow cytometer (BD Biosciences, USA). Live cells were gated based on FSC/SSC and absence of TOPRO-3 staining. Binding curves were analyzed by non-linear regression of log-transformed data (sigmoidal dose-response with variable slope, four parameters) using GraphPad Prism V7.02 software (GraphPad Software, San Diego, CA, USA).

human CD30 [4] = molecular target: T2, human CD30; test: flow cytometry, DL-40 cells (ALCL), range of 3 tests
Description: as §1

human CD30 [5] = molecular target: T2, human CD30; test: flow cytometry, L-540 cells (HL), range of 3 tests
Description: as §1

human CD30 [6] = molecular target: T2, human CD30; test: flow cytometry, KM-H2 cells (HL), average of 3 tests
Description: as §1

human CD30 [7] = molecular target: T2, human CD30; test: flow cytometry, JVM-2 cells (MCL), average of 3 tests
Description: as §1

human CD30 [8] = molecular target: T2, human CD30; test: flow cytometry, L-428 cells (HL), average of 2 tests
Description: as §1

human CD30 [9] = molecular target: T2, human CD30; test: flow cytometry, SUP-T1 cells (TLL), average of 2 tests; SUP-T1 cells (TLL), average of 2 tests
Description: as §1

human CD30 [10] = molecular target: T2, human CD30; test: flow cytometry, L-540 cells (HL), average of 3 tests
Description: as §1

human CD30 [11] = molecular target: T2, human CD30; test: flow cytometry, HH cells (CTCL), average of 3 tests
Description: as §1

Binder | EC50 (read off the curve) [1] [µg/mL] | EC50 (read off the curve) (human CD30 [2]) [µg/mL] | EC50 (human CD30 [3]) [µg/mL] | EC50 (human CD30 [4]) [µg/mL] | EC50 (human CD30 [5]) [µg/mL] | EC50 (human CD30 [6]) [µg/mL] | EC50 (human CD30 [7]) [µg/mL] | EC50 (human CD30 [8]) [µg/mL] | EC50 (human CD30 [9]) [µg/mL] | EC50 (human CD30 [10]) [µg/mL] | EC50 (human CD30 [11]) [µg/mL]
B1 | ~0.2 | ~0.4 | – | – | – | – | – | – | – | – | –
B2 | – | – | 0.143 to 0.258 | 0.17 to 0.347 | 0.202 to 0.469 | 0.159 | 0.126 | 0.174 | 0.346 | 0.323 | 0.195
